Test results from US20240059769A1 (BIOLOJIC DESIGN, published 2024).
Where a chain is given by its changes, count along the chain named. Like-named read-outs stand apart in the source and are kept apart here.

B1: BDG38.132 (antibody, V domains shown)
VH: QMQLVESGGGVVQPGRSLRLSCAASGFEFRTYGMHWVRQAPGKGLEWVGVIWDDGSNTHYADSVKGRFTITRDNSKNTLNLQMNSLRAEDTAVYYCVRAPQWYLTAEAFDLWGQGTMVTVSS
VL: SYILTQPPSVSVAPGETATITCGGNLIGARLVHWYQQKPGQAPVLVIYDDSDRPSRIPERFSGSNIGNTATLTISRVEAGDEADYYCQVWDYSSDHMVFGGGTKLTVL
notes: IgG1
B2: Ab clone 38.014 (yeast surface display) (scFv, V domains shown)
VH: B1 VH with E28A, G49A, D53Y, T105S
VL: B1 VL with I3V, E16Q, T19R, R30K, I47V, I66S, Y92H, M97V
notes: YSD clone; also called BDG38_014
B3: Ab clone 38.026 (yeast surface display) (scFv, V domains shown)
VH: B1 VH with E28A, G49A, D53Y, N57A, T105S
VL: B1 VL with I3V, E16Q, A29S, R30K, I47V, Y92H, M97V
notes: YSD clone; also called BDG38_026
B4: BDG38.090 (antibody, V domains shown)
VH: B1 VH with R19T, V48L, A88V, V97A
VL: B1 VL with T19R, I47V, S75E, R76D, A79E, S93Y
notes: IgG1
B5: BDG38.092 (antibody, V domains shown)
VH: B1 VH with R19T, V48L, G49A, A88V
VL: B1 VL with I3V, R76D, A79E, S93Y
notes: IgG1
B6: BDG38.096 (antibody, V domains shown)
VH: B1 VH with G49A, A88V
VL: B1 VL with T19R, A79E, H96S
notes: IgG1
B7: BDG38.112 (antibody, V domains shown)
VH: B1 VH with V48L, D53Y
VL: B1 VL with E16Q, S75E, A79E, H96T, M97Y
notes: IgG1
B8: BDG38.116 (antibody, V domains shown)
VH: B1 VH with R19T, G49A, A88V
VL: B1 VL with I3V, E16Q, S75E, S93Y, H96T
notes: IgG1
B9: BDG38.126 (antibody, V domains shown)
VH: B1 VH
VL: B1 VL with E16Q, T19R, R30K, S75E, A79E
notes: IgG1

Legend:
recombinant human IL-13 [1] = biological target: T1, recombinant human IL-13 (human, UniProt P35225 35-146); test: SPR
T1 construct: also called rh-IL-13; hIL-13
T1 sequence (P35225 35-146 limits assumed): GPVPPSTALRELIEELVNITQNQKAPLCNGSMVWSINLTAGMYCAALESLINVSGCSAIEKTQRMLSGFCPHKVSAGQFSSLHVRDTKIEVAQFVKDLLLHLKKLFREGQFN

human TSLP [2] = biological target: T2, human TSLP (human, UniProt Q969D9 29-159); test: SPR
T2 construct: also called hTSLP; rhTSLP

recombinant human IL-13 [3] = biological target: T1, recombinant human IL-13; test: cell-based or functional assay
human TSLP [4] = biological target: T2, human TSLP; test: cell-based or functional assay
recombinant human IL-13 [5] = biological target: T1, recombinant human IL-13; test: cell-based or functional assay; remark: listed apart in the source
hTSLP-His [6] = biological target: T3, hTSLP-His (human, UniProt Q969D9 29-159, limits assumed); test: cell-based or functional assay
[7] = biological target: T4, recombinant cynomolgus monkey IL-13 (cynomolgus monkey, UniProt Q0PW92 21-132); test: SPR
T4 construct: bought; also called rc-IL-13; cIL-13
T4 sequence (Q0PW92 entry or part of it): as the sequence (P35225 35-146 limits assumed) above, with G1S, R10K, M42V, S67N, H83R, L100V counted along it

hTSLP-His [8] = biological target: T3, hTSLP-His; test: competition ELISA, 7 nM TSLP-His pre-incubated with antibody; competitor Tezepelumab coated
[9] = biological target: T5, cynomolgus monkey (cyno) TSLP (cynomolgus monkey, UniProt A0A7N9CAT7 29-159); test: SPR
T5 construct: also called cTSLP; cynomolgus TSLP
T5 sequence (A0A7N9CAT7 entry or part of it): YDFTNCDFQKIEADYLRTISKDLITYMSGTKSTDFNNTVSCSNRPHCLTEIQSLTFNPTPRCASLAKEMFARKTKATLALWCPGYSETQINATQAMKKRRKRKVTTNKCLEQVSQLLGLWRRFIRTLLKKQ

human TSLP [10] = biological target: T2, human TSLP; test: yeast surface display, affinity maturation library
recombinant human IL-13 [11] = biological target: T1, recombinant human IL-13; test: SPR; remark: listed apart in the source
human TSLP [12] = biological target: T2, human TSLP; test: SPR; remark: listed apart in the source

Row | Binder | IC50 CD23 (recombinant human IL-13 [3]) [nM] | IC50 TARC (human TSLP [4]) [nM] | HEK-IL-13 [nM] (IC50, STAT6 reporter) (recombinant human IL-13 [5]) | IC50 [pM], STAT5 phosphorylation inhibition in MUTZ5 cells (hTSLP-His [6]) [pM] | Kd [7] [nM] | koff [7] [s⁻¹] | kon [7] [M⁻¹ s⁻¹] | IC50 (hTSLP-His [8]) [nM] | Kd [9] [nM] | koff [9] [s⁻¹] | kon [9] [M⁻¹ s⁻¹] | Kd (recombinant human IL-13 [11]) [nM] | koff (recombinant human IL-13 [11]) [s⁻¹] | kon (recombinant human IL-13 [11]) [M⁻¹ s⁻¹] | Kd (human TSLP [12]) [nM] | koff (human TSLP [12]) [s⁻¹] | kon (human TSLP [12]) [M⁻¹ s⁻¹] | other results
1 | B1 | 0.43 | 22.4 | 0.0899 | 0.386 | 0.0563 | 0.00201 | 3.58e+07 | 9.2 | 0.000321 | 2.19e-06 | 6.83e+06 | – | – | – | – | – | – | Kd (recombinant human IL-13 [1]): 0.0178 nM; koff (recombinant human IL-13 [1]): 0.000184 s⁻¹; kon (recombinant human IL-13 [1]): 1.03e+07 M⁻¹ s⁻¹; Kd (human TSLP [2]): 0.00341 nM; koff (human TSLP [2]): 3.55e-05 s⁻¹; kon (human TSLP [2]): 1.04e+07 M⁻¹ s⁻¹
2 | B2 | – | – | – | – | – | – | – | – | – | – | – | – | – | – | – | – | – | binding result (human TSLP [10]): binds
3 | B3 | – | – | – | – | – | – | – | – | – | – | – | – | – | – | – | – | – | binding result (human TSLP [10]): binds
4 | B4 | 0.00656 | 0.00756 | 0.103 | 43.4 | 0.0752 | 0.00187 | 2.49e+07 | 7.31 | 0.00901 | 5.53e-05 | 6.14e+06 | 0.0198 | 0.00013 | 6.57e+06 | 0.0118 | 0.000113 | 9.57e+06 | –
5 | B5 | 0.0675 | 5.88 | 0.12 | 33 | 0.0428 | 0.00129 | 3.01e+07 | 7.38 | 0.00448 | 1.72e-05 | 3.84e+06 | 0.0095 | 5.37e-05 | 5.65e+06 | 0.00392 | 2.46e-05 | 6.28e+06 | –
6 | B6 | 0.25 | 23.4 | 0.15 | – | 0.0442 | 0.00242 | 5.47e+07 | 5.87 | 0.0181 | 6.14e-05 | 3.39e+06 | 0.0251 | 0.000155 | 6.19e+06 | 0.021 | 0.000133 | 6.33e+06 | –
7 | B7 | 0.0594 | 0.104 | 0.0367 | 11400 | – | – | – | 29.1 | – | – | – | 0.0173 | 4.02e-05 | 2.32e+06 | 0.258 | 0.000274 | 1.06e+06 | –
8 | B8 | 0.0837 | 59.4 | 0.18 | – | 0.027 | 0.000847 | 3.14e+07 | 5.12 | 0.0271 | 0.000386 | 1.43e+07 | 0.021 | 0.000116 | 5.51e+06 | 0.00727 | 3.95e-05 | 5.44e+06 | –
9 | B9 | 0.0868 | 2.58 | 0.079 | 0.0421 | – | – | – | 5.95 | – | – | – | – | – | – | – | – | – | Kd (recombinant human IL-13 [1]): 0.0291 nM; koff (recombinant human IL-13 [1]): 0.000143 s⁻¹; kon (recombinant human IL-13 [1]): 4.92e+06 M⁻¹ s⁻¹; Kd (human TSLP [2]): 0.0174 nM; koff (human TSLP [2]): 6.72e-05 s⁻¹; kon (human TSLP [2]): 3.87e+06 M⁻¹ s⁻¹
